Test results published in paper PMC7661507, “Polyelectrolyte interactions enable rapid association and dissociation in high-affinity disordered protein complexes” (Nature Communications, 2020).
Where a chain is given by its changes, count along the chain named. In names and notes the source's numbering stands.

Columns and labels:
Conditions in all cases: both partners purified
[1] = molecular target: T1, unlabeled recombinant wild-type human histone H1.0 (human, UniProt P07305 1-194); experiment: single-molecule FRET of freely diffusing molecules; 50 pM donor/acceptor-labeled ProTα titrated with unlabeled H1; fraction bound from transfer efficiency histograms; 10 mM TBS, 0.1 mM EDTA, 200 mM ionic strength (KCl), 140 mM β-mercaptoethanol, 0.01% Tween 20
T1 construct: linker histone H1.0, human, H1F0 gene, UniProt P07305, wild type; also called linker histone H1.0; unlabeled H1; source: bought: New England Biolabs (cat. # M2501S)

[2] = molecular target: T1, unlabeled recombinant wild-type human …; experiment: single-molecule FRET of freely diffusing molecules, competition titration; 50 pM labeled ProTα and constant unlabeled H1 (10 nM; also 1 µM and 20 µM in Fig. 2), unlabeled ProTα varied; TBS, 200 mM ionic strength; coupled binding equilibria fit
[3] = molecular target: T1, unlabeled recombinant wild-type human …; experiment: single-molecule FRET of surface-immobilized molecules; biotinylated labeled ProTα immobilised on neutravidin/PEG surface, nanomolar unlabeled H1 in solution; degassed TBS in D2O, 200 mM ionic strength, oxygen scavenger; two-state hidden Markov model of photon time traces

B1: ProTα E56C/D110C labeled with Alexa Fluor 488/594 (natural protein)
chain: SDAAVDTSSEITTKDLKEKKEVVEEAENGRDAPANGNAENEENGEQEADNEVDEECEEGGEEEEEEEEGDGEEEDGDEDEEAESATGKRAAEDDEDDDVDTKKQKTDEDC
modifications: Alexa Fluor 488 maleimide and Alexa Fluor 594 maleimide on the cysteines at positions 56 and 110
[1]
  Kd: 0.73 nM

B2: unlabeled ProTα (natural protein, human, UniProt P06454 1-111, looked up)
chain: MSDAAVDTSSEITTKDLKEKKEVVEEAENGRDAPANGNAENEENGEQEADNEVDEEEEEGGEEEEEEEEGDGEEEDGDEDEEAESATGKRAAEDDEDDDVDTKKQKTDEDD
notes: prothymosin α (ProTα), human, PTMA gene, UniProt P06454; The main text calls it only 'unlabeled ProTα'; also called prothymosin α; source: E. coli C41, purified (IMAC, tag cleavage, RP-HPLC)
[2]
  Kd: 1.1 nM

B3: Avi-Tag-ProTα E56C/D110C labeled with Cy3B/LD650 (natural protein)
chain: B2 chain with E57C, D111C
modifications: biotin on Lys12 of the Avi-tag; Cy3B maleimide and LD650 maleimide on the cysteines at positions 56 and 110
[3]
  Kd: 1.2 ± 0.1 nM
  koff: 1.7 ± 0.1 s⁻¹
  kon: 1.45e+09 M⁻¹ s⁻¹
